Experiments:
Assay in all cases: holdup assay
Parameters in all cases: key: below the threshold = too weak to quantify, mostly under pKd 3.1 to 4
[1] = molecular target: T1, APBA2_1, Q99767
T1 sequence (Q99767 563-664, limits assumed, looked up): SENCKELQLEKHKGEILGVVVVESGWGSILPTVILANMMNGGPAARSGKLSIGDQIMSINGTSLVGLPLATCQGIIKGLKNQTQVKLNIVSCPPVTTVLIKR

[2] = molecular target: T2, DFNB31_3, Q9P202
T2 sequence (Q9P202 811-907, limits assumed, looked up): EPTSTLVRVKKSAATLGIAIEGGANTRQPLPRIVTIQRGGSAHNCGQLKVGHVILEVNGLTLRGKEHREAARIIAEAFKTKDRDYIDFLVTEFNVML

[3] = molecular target: DLG1_3, Q12959
[4] = molecular target: DLG2_2, Q15700
[5] = molecular target: T3, DLG3_3, Q92796
T3 sequence (Q92796 374-475, limits assumed, looked up): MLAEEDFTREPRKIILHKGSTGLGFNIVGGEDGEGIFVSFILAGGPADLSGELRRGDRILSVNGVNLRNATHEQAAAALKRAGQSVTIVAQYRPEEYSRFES

[6] = molecular target: DLG4_1, P78352
[7] = molecular target: DLG4_2, P78352
[8] = molecular target: DLG4_3, P78352
[9] = molecular target: FRMPD2_1, Q68DX3
[10] = molecular target: FRMPD4, Q14CM0
[11] = molecular target: GOPC, Q9HD26
[12] = molecular target: GORASP2, Q9H8Y8
[13] = molecular target: T4, GRIP1_7, Q9Y3R0
T4 sequence (Q9Y3R0 999-1096, limits assumed, looked up): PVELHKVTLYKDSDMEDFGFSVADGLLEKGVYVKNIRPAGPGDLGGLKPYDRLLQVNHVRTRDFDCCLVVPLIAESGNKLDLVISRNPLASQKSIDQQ

[14] = molecular target: GRIP2_3, Q9C0E4
[15] = molecular target: T5, HTRA4, P83105
T5 sequence (P83105 378-476, limits assumed, looked up): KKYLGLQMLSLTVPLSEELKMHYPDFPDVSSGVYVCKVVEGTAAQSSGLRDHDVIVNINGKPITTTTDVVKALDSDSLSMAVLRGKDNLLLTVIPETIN

[16] = molecular target: Inadl_2, Q8NI35
[17] = molecular target: Inadl_8, Q8NI35
[18] = molecular target: LIMK2, P53671
[19] = molecular target: LNX1_1, Q8TBB1
[20] = molecular target: LNX1_3, Q8TBB1
[21] = molecular target: MAGI2_3, Q86UL8
[22] = molecular target: MAGI2_5, Q86UL8
[23] = molecular target: MAST2, Q6P0Q8
[24] = molecular target: T6, NHERF3_1, Q5T2W1
T6 sequence (Q5T2W1 4-100, limits assumed, looked up): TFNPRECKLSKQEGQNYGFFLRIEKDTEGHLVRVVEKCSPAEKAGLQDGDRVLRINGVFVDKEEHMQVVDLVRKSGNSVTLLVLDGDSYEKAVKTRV

[25] = molecular target: NHERF4_1, Q86UT5-2
[26] = molecular target: NHERF4_4, Q86UT5
[27] = molecular target: T7, PDZD2_2, O15018
T7 sequence (O15018 329-429, limits assumed, looked up): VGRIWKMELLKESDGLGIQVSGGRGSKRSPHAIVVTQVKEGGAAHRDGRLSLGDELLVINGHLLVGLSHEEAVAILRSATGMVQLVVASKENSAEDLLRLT

[28] = molecular target: SCRIB_1, Q14160
[29] = molecular target: SCRIB_2, Q14160
[30] = molecular target: SNX27, Q96L92
[31] = molecular target: T8, TJP3_3, O95049
T8 sequence (O95049 375-456, limits assumed, looked up): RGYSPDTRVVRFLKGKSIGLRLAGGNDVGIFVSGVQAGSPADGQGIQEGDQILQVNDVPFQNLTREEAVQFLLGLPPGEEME

[32] = plain residues with an end cap or a label only (N-terminal biotin on a linker: ahx)
[33] = plain residues with an end cap or a label only (N-terminal biotin on a linker: ttds)

Sequence of LIMK2, P53671 (P53671 143-248): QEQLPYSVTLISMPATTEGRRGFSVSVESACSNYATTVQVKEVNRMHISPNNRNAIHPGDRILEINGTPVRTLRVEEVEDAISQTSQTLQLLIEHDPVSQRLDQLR
Sequence of SCRIB_1, Q14160 (Q14160 718-814): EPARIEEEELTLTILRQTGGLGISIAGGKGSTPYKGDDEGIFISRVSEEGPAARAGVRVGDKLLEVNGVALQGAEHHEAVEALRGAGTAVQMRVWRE
Sequence of DLG1_3, Q12959 (Q12959 457-571): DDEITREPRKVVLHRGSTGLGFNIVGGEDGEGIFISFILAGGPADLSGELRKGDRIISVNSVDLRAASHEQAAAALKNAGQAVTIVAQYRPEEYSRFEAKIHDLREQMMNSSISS
Sequence of DLG4_3, P78352 (P78352 306-403): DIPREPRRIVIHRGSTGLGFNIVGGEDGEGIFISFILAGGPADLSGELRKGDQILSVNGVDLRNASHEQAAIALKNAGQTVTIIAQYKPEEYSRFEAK
Sequence of MAGI2_3, Q86UL8 (Q86UL8 600-682): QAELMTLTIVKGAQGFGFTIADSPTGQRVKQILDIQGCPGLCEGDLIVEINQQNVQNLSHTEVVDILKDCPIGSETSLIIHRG
Sequence of NHERF4_4, Q86UT5 (Q86UT5 464-550): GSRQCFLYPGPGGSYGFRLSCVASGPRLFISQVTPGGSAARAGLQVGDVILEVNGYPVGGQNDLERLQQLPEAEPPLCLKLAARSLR
Sequence of FRMPD2_1, Q68DX3 (Q68DX3 770-861): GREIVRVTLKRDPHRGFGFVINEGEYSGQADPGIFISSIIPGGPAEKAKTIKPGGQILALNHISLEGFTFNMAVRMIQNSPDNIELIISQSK
Sequence of SCRIB_2, Q14160 (Q14160 857-960): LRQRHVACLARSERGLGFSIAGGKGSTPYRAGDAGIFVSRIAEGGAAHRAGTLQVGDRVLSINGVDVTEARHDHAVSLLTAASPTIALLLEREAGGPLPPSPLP
Sequence of MAST2, Q6P0Q8 (Q6P0Q8 1099-1202): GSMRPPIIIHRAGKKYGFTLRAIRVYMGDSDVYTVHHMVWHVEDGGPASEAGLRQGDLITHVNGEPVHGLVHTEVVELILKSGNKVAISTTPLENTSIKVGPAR
Sequence of DLG2_2, Q15700 (Q15700 189-283): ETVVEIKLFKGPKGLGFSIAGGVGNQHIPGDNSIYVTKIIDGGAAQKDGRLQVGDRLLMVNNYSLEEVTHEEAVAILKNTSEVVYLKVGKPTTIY
Sequence of DLG4_2, P78352 (P78352 155-259): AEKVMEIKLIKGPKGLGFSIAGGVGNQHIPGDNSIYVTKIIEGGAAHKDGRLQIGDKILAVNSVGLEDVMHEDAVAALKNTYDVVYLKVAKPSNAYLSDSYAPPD
Sequence of LNX1_3, Q8TBB1 (Q8TBB1 500-596): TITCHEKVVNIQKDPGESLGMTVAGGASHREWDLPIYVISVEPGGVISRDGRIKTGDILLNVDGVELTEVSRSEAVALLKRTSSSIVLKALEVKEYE
Sequence of DLG4_1, P78352 (P78352 62-152): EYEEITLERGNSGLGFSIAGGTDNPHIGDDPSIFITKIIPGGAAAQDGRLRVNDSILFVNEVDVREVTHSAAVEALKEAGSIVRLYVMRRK
Sequence of Inadl_2, Q8NI35 (Q8NI35 238-335): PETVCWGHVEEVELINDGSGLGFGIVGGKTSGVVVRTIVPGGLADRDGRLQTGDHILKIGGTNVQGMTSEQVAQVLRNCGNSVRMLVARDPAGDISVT
Sequence of NHERF4_1, Q86UT5-2 (Q86UT5 other isoform, or with tags, fused parts or gaps): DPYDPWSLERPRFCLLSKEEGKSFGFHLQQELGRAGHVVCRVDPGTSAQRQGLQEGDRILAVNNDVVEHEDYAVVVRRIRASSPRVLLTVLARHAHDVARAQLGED
Sequence of FRMPD4, Q14CM0 (Q14CM0 67-160): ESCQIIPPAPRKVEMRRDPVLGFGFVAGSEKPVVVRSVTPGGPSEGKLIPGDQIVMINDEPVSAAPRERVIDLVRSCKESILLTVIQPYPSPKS
Sequence of GRIP2_3, Q9C0E4 (Q9C0E4 238-339): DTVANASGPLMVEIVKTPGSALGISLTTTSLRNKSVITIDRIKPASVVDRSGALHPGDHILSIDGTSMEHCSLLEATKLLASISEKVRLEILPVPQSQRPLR
Sequence of MAGI2_5, Q86UL8 (Q86UL8 915-1017): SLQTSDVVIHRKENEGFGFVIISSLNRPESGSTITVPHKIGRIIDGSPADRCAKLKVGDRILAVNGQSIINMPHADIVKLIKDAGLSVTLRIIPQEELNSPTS
Sequence of LNX1_1, Q8TBB1 (Q8TBB1 261-371): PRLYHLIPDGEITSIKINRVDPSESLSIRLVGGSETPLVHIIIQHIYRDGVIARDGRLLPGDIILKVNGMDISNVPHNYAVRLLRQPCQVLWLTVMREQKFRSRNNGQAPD
Sequence of Inadl_8, Q8NI35 (Q8NI35 1425-1530): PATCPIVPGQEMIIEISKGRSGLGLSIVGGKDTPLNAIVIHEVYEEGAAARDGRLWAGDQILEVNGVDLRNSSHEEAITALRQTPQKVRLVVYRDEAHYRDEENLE

B1: RGS12, O14924 (peptide)
chain: KTSAHHATFV
pKd [1, 32]: below the threshold
pKd [2, 32]: below the threshold
pKd [3, 32]: below the threshold
pKd [4, 32]: 4.01
pKd [5, 32]: below the threshold
pKd [6, 32]: 4.22
pKd [7, 32]: 4.13
pKd [8, 32]: below the threshold
pKd [9, 32]: below the threshold
pKd [10, 32]: below the threshold
pKd [11, 32]: 3.53
pKd [12, 32]: 4.12
pKd [13, 32]: below the threshold
pKd [14, 32]: below the threshold
pKd [15, 32]: 3.97
pKd [16, 32]: below the threshold
pKd [17, 32]: 4.22
pKd [18, 32]: below the threshold
pKd [19, 32]: 4.21
pKd [20, 32]: below the threshold
pKd [21, 32]: below the threshold
pKd [22, 32]: 4.37
pKd [23, 32]: 4.33
pKd [24, 32]: 4.41
pKd [25, 32]: below the threshold
pKd [26, 32]: below the threshold
pKd [27, 32]: 5.04
pKd [28, 32]: 3.8
pKd [29, 32]: 3.47
pKd [30, 32]: 4.05
pKd [31, 32]: below the threshold

B2: NHERF3, Q5T2W1 (peptide)
chain: SSSNSEDTEM
pKd [1, 32]: below the threshold
pKd [2, 32]: below the threshold
pKd [3, 32]: below the threshold
pKd [4, 32]: below the threshold
pKd [5, 32]: below the threshold
pKd [6, 32]: below the threshold
pKd [7, 32]: below the threshold
pKd [8, 32]: below the threshold
pKd [9, 32]: below the threshold
pKd [10, 32]: below the threshold
pKd [11, 32]: below the threshold
pKd [12, 32]: below the threshold
pKd [13, 32]: below the threshold
pKd [14, 32]: below the threshold
pKd [15, 32]: below the threshold
pKd [16, 32]: below the threshold
pKd [17, 32]: below the threshold
pKd [18, 32]: below the threshold
pKd [19, 32]: below the threshold
pKd [20, 32]: below the threshold
pKd [21, 32]: below the threshold
pKd [22, 32]: below the threshold
pKd [23, 32]: 4.5
pKd [24, 32]: below the threshold
pKd [25, 32]: below the threshold
pKd [26, 32]: below the threshold
pKd [27, 32]: below the threshold
pKd [28, 32]: below the threshold
pKd [29, 32]: below the threshold
pKd [30, 32]: 4.16
pKd [31, 32]: below the threshold

B3: ADRB2, P07550 (peptide)
chain: RNCSTNDSLL
pKd [1, 32]: below the threshold
pKd [2, 32]: below the threshold
pKd [3, 32]: below the threshold
pKd [4, 32]: below the threshold
pKd [5, 32]: below the threshold
pKd [6, 32]: below the threshold
pKd [7, 32]: below the threshold
pKd [8, 32]: below the threshold
pKd [9, 32]: below the threshold
pKd [10, 32]: 3.64
pKd [11, 32]: below the threshold
pKd [12, 32]: 3.52
pKd [13, 32]: 3.48
pKd [14, 32]: below the threshold
pKd [15, 32]: below the threshold
pKd [16, 32]: below the threshold
pKd [17, 32]: below the threshold
pKd [18, 32]: below the threshold
pKd [19, 32]: below the threshold
pKd [20, 32]: below the threshold
pKd [21, 32]: below the threshold
pKd [22, 32]: below the threshold
pKd [23, 32]: 4.08
pKd [24, 32]: 3.89
pKd [25, 32]: 3.88
pKd [26, 32]: below the threshold
pKd [27, 32]: below the threshold
pKd [28, 32]: 3.58
pKd [29, 32]: below the threshold
pKd [30, 32]: 3.6
pKd [31, 32]: below the threshold

B4: DGKZ, Q13574 (peptide)
chain: IQREDQETAV
pKd [1, 33]: below the threshold
pKd [2, 33]: below the threshold
pKd [3, 33]: 4.12
pKd [4, 33]: 4.69
pKd [5, 33]: 4.42
pKd [6, 33]: 4.72
pKd [7, 33]: 4.96
pKd [8, 33]: 3.84
pKd [9, 33]: below the threshold
pKd [10, 33]: 3.93
pKd [11, 33]: 3.86
pKd [12, 33]: below the threshold
pKd [13, 33]: 3.74
pKd [14, 33]: below the threshold
pKd [15, 33]: below the threshold
pKd [16, 33]: below the threshold
pKd [17, 33]: below the threshold
pKd [18, 33]: below the threshold
pKd [19, 33]: below the threshold
pKd [20, 33]: below the threshold
pKd [21, 33]: 4.45
pKd [22, 33]: 4.69
pKd [23, 33]: 5.76
pKd [24, 33]: 5.14
pKd [25, 33]: below the threshold
pKd [26, 33]: below the threshold
pKd [27, 33]: 5.1
pKd [28, 33]: 4.71
pKd [29, 33]: 4.86
pKd [30, 33]: 6
pKd [31, 33]: below the threshold

B5: ATP2B1, P20020 (peptide)
chain: SPLHSLETSL
pKd [1, 33]: below the threshold
pKd [2, 33]: below the threshold
pKd [3, 33]: 4.08
pKd [4, 33]: 4.18
pKd [5, 33]: 3.97
pKd [6, 33]: 4.06
pKd [7, 33]: 4.15
pKd [8, 33]: 4.01
pKd [9, 33]: below the threshold
pKd [10, 33]: 4.45
pKd [11, 33]: 4.13
pKd [12, 33]: below the threshold
pKd [13, 33]: 3.58
pKd [14, 33]: below the threshold
pKd [15, 33]: 3.48
pKd [16, 33]: below the threshold
pKd [17, 33]: below the threshold
pKd [18, 33]: below the threshold
pKd [19, 33]: below the threshold
pKd [20, 33]: below the threshold
pKd [21, 33]: 3.5
pKd [22, 33]: 4.31
pKd [23, 33]: 5.88
pKd [24, 33]: 5.24
pKd [25, 33]: 3.91
pKd [26, 33]: below the threshold
pKd [27, 33]: below the threshold
pKd [28, 33]: 5.36
pKd [29, 33]: 4.27
pKd [30, 33]: 5.48
pKd [31, 33]: below the threshold

Reference: publication PMC9482650, “Quantitative fragmentomics allow affinity mapping of interactomes” (Nature Communications, 2022)
